Data published in article PMC8606531, “The Impact of Rare Human Variants on Barrier-To-Auto-Integration Factor 1 (Banf1) Structure and Function”.

Target: T1, Banf1 WT (Homo sapiens, UniProt O75531 1-89)
T1 sequence: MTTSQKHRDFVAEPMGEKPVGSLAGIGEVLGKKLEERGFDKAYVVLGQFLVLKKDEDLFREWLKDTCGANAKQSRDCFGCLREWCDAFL
Test: EMSA; EC50; 10 mM KH2PO4, 100 mM NaCl, 0.01% IGEPAL, 5 nM Cy5 DNA, 30 min at 37 C; pH not stated; 8% gel in 1x TBE at 4 C
Details: protein: recombinant; tags: N-terminal His6 (pET-28a NdeI-XhoI); chain copies: 2; label: 5' Cy5 on forward strand; blunt

B1: Cy5 40 bp dsDNA (dsDNA)
DNA 1: AGGAGCGCCAGACCCACCAAGAGCCCTCTATCGGTTGGGA
DNA 2: TCCCAACCGATAGAGGGCTCTTGGTGGGTCTGGCGCTCCT
  apparent K (half saturation): 15.1 ± 1.96 nM
